The record followed here is patent US20250109215A1 (Xencor, published 2025).

Assay [1] concerns the target T1, human CD123 (human, UniProt P26951 19-305, limits assumed).
T1 construct: Construct on the chip is not described; also called CD123 chip
T1 sequence (looked up): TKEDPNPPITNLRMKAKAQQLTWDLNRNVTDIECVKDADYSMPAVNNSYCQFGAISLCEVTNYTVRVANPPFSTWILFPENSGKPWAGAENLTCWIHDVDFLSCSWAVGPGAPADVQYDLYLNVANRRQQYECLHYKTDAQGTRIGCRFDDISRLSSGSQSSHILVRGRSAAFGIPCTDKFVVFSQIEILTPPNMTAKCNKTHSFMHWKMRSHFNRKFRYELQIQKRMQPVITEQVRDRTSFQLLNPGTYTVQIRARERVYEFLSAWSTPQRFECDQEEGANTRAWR
The assay can be described thus: SPR sensorgrams on CD123 (highest trace about 160 RU); the value is printed over the panel without a name and equals the rounded KD of Figure 127.

The target in assay [2] is T1, human CD123. The assay can be described thus: Biacore, Fab-His on CD123 (Example 3; the sheet names no assay). A general note: In SPR one partner is held on a chip, and binding of the other changes the refractive index at the surface.
Assay [3] addresses T2, human CD3 (human, UniProt P07766 23-126; P04234 22-105).
T2 construct: The legend says only human CD3
The assay can be described thus: method not stated in the legend of FIG. 142.

Assay [4] concerns the target T3, cyno CD3 (cynomolgus monkey, UniProt Q95LI5 22-117; Q95LI8 22-105).
T3 construct: The legend says only cyno CD3; also called cynomolgus monkey CD3
The assay can be described thus: method not stated in the legend of FIG. 143.

Assay [5] addresses CD123 on KG-1a cells (human, UniProt P26951 19-378). Nature of the assay: cell-based or functional assay.
For assay [6], the target named is T1, human CD123. Nature of the assay: SPR sensorgrams of the Fab on CD123 (highest trace about 153 RU); the value is printed over the panel without a name and equals the rounded KD of Figure 127.
For assay [7], the target named is T1, human CD123. The assay can be described thus: off-rate screen of Fab-His on a Biacore CD123 chip (Example 3), relative to 7G3 H1L1 Fab.
In assay [8] the target is T4, CD3 (Homo sapiens (Human), UniProt P07766 23-126; P04234 22-105).
T4 construct: not shown: The Fc carrier of the Sino Biological CD3 delta-epsilon-Fc heterodimer; copies: 1 + 1
T4 sequence (P07766 23-126 limits assumed, chain 1 of 2): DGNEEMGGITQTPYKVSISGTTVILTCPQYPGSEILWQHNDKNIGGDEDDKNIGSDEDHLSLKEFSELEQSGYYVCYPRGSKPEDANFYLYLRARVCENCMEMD
T4 sequence (P04234 22-105 limits assumed, chain 2 of 2): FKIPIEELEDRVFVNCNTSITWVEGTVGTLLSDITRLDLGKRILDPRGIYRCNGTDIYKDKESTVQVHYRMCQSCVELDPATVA
The assay can be described thus: Biacore.

Assay [9] has as its target T4, CD3. Nature of the assay: Biacore; column head 'KD (nM)*', anti-CD3 scFv-Fc H1.31_L1.47.
For assay [10], the target named is T4, CD3. The assay can be described thus: Biacore; column head 'KD (nM)*', anti-CD3 scFv-Fc H1.30_L1.47.

T3 sequence (Q95LI5 22-117, form in doubt, chain 1 of 2): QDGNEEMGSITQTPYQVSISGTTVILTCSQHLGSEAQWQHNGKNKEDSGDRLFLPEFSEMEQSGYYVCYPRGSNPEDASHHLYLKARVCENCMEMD
T3 sequence (Q95LI8 22-105, form in doubt, chain 2 of 2): as the sequence (P04234 22-105 limits assumed, chain 2 of 2) above, with I5V, N15K, I20V, S32T, D33N, I34N, T64A, S74N, V83L counted along it
T2 sequence (P07766 23-126, chain 1 of 2): as the sequence (P07766 23-126 limits assumed, chain 1 of 2) above
T2 sequence (P04234 22-105, chain 2 of 2): as the sequence (P04234 22-105 limits assumed, chain 2 of 2) above

B1: 13967 7G3_H1.109_L1.57_Fab_His (Fab, V domains shown)
VH: QVQLQQSGAEVKKPGASVKVSCKASGYTFTDYYMKWVKQSHGKSLEWMGDIIPSNGATFYNQKFKGKATLTVDRSTSTAYMELSSLRSEDTAVYYCARSHLLRASWFAYWGQGTLVTVSS
VL: DFVMTQSPDSLAVSLGERATINCKSSQSLLNTGNQKNYLTWYQQKPGQPPKLLIYWASTRESGVPDRFTGSGSGTDFTLTISSLQAEDVAVYYCQNDYSYPYTFGGGTKLEIKR
notes: also called XENP13967
By Kd is commonly meant the constant that tells how readily two partners part at equilibrium. As a reminder, the koff is the first-order rate constant of dissociation. A lower koff goes with slow dissociation. The kon is the rate constant with which the complex forms. Lower therefore signals slower complex formation. Take B1: in assay [1], binding was put at a Kd of 0.1 nM. Moreover, in assay [2], the Ka was found to be 1.05e+10 M⁻¹; the affinity, expressed as Kd, was 0.0954 nM; the dissociation rate constant (koff) is 6.25e-05 s⁻¹; the kon is 655000 M⁻¹ s⁻¹.

B2: XENP14045 (anti-CD123 x anti-CD3) bispecific (bispecific antibody)
heavy: QVQLQQSGAEVKKPGASVKVSCKASGYTFTDYYMKWVKQSHGKSLEWMGDIIPSNGATFYNQKFKGKATLTVDRSTSTAYMELSSLRSEDTAVYYCARSHLLRASWFAYWGQGTLVTVSSASTKGPSVFPLAPSSKSTSGGTAALGCLVKDYFPEPVTVSWNSGALTSGVHTFPAVLQSSGLYSLSSVVTVPSSSLGTQTYICNVNHKPSDTKVDKKVEPKSCDKTHTCPPCPAPPVAGPSVFLFPPKPKDTLMISRTPEVTCVVVDVKHEDPEVKFNWYVDGVEVHNAKTKPREEEYNSTYRVVSVLTVLHQDWLNGKEYKCKVSNKALPAPIEKTISKAKGQPREPQVYTLPPSREEMTKNQVSLTCDVSGFYPSDIAVEWESDGQPENNYKTTPPVLDSDGSFFLYSKLTVDKSRWEQGDVFSCSVMHEALHNHYTQKSLSLSPGK
scFv-Fc: not shown
light: not shown
notes: XENP13967 has the same CD123 side with a different CD3 scFv
B2: the Kd in [3] is 8.1 nM; in [4], 5.7 nM.

B3: 13928B (bispecific antibody)
Heavy Chain 1 (Anti-CD123 Fab-Fc (7G3_H0)): EVQLQQSGPELVKPGASVKMSCKASGYTFTDYYMKWVKQSHGKSLEWIGDIIPSNGATFYNQKFKGKATLTVDRSSSTAYMHLNSLTSEDSAVYYCTRSHLLRASWFAYWGQGTLVTVSAASTKGPSVFPLAPSSKSTSGGTAALGCLVKDYFPEPVTVSWNSGALTSGVHTFPAVLQSSGLYSLSSVVTVPSSSLGTQTYICNVNHKPSDTKVDKKVEPKSCDKTHTCPPCPAPPVAGPSVFLFPPKPKDTLMISRTPEVTCVVVDVKHEDPEVKFNWYVDGVEVHNAKTKPREEEYNSTYRVVSVLTVLHQDWLNGKEYKCKVSNKALPAPIEKTISKAKGQPREPQVYTLPPSREEMTKNQVSLTCDVSGFYPSDIAVEWESDGQPENNYKTTPPVLDSDGSFFLYSKLTVDKSRWEQGDVFSCSVMHEALHNHYTQKSLSLSPGK
Heavy Chain 2 (Anti-CD3 scFv-Fc (aCD3_H1.30_L1.47)): not shown
Light Chain (Anti-CD123 LC (7G3_L0)): DFVMTQSPSSLTVTAGEKVTMSCKSSQSLLNSGNQKNYLTWYLQKPGQPPKLLIYWASTRESGVPDRFTGSGSGTDFTLTISSVQAEDLAVYYCQNDYSYPYTFGGGTKLEIKRTVAAPSVFIFPPSDEQLKSGTASVVCLLNNFYPREAKVQWKVDNALQSGNSQESVTEQDSKDSTYSLSSTLTLSKADYEKHKVYACEVTHQGLSSPVTKSFNRGEC
As for B3, in [5], the “RTCC % of KG-1a cells: EC50 (read off the curve)” value was about 0.8 ng/mL.

B4: 13760 7G3_H0L0_Fab_His (Fab, V domains shown)
VH: EVQLQQSGPELVKPGASVKMSCKASGYTFTDYYMKWVKQSHGKSLEWIGDIIPSNGATFYNQKFKGKATLTVDRSSSTAYMHLNSLTSEDSAVYYCTRSHLLRASWFAYWGQGTLVTVSA
VL: DFVMTQSPSSLTVTAGEKVTMSCKSSQSLLNSGNQKNYLTWYLQKPGQPPKLLIYWASTRESGVPDRFTGSGSGTDFTLTISSVQAEDLAVYYCQNDYSYPYTFGGGTKLEIKR
notes: Fab of the murine 7G3 variable regions; also called XENP13760
B4 gave a Kd in assay [6] of 0.2 nM. In addition, in assay [2], the Ka is 6.25e+09 M⁻¹, the Kd was 0.16 nM, the koff came to 0.000108 s⁻¹ and the kon was 674000 M⁻¹ s⁻¹. In addition, in assay [7], the “Fold improvement in off-rate vs. H1L1” value came out at 7.21 fold.

B5: XENP14701 (bispecific antibody)
heavy: EVQLVESGGGLVQPGGSLRLSCAASGFDFSRSWMNWVRQAPGKGLEWVSEINPDSSTINYATSVKGRFTISRDNSKNTLYLQMNSLRAEDTAVYYCARYGNWFPYWGQGTLVTVSSASTKGPSVFPLAPSSKSTSGGTAALGCLVKDYFPEPVTVSWNSGALTSGVHTFPAVLQSSGLYSLSSVVTVPSSSLGTQTYICNVNHKPSDTKVDKKVEPKSCDKTHTCPPCPAPPVAGPSVFLFPPKPKDTLMISRTPEVTCVVVDVKHEDPEVKFNWYVDGVEVHNAKTKPREEEYNSTYRVVSVLTVLHQDWLNGKEYKCKVSNKALPAPIEKTISKAKGQPREPQVYTLPPSREEMTKNQVSLTCDVSGFYPSDIAVEWESDGQPENNYKTTPPVLDSDGSFFLYSKLTVDKSRWEQGDVFSCSVMHEALHNHYTQKSLSLSPGK
scFv-Fc: not shown
light: DIVMTQSPSSLSASVGDRVTITCRASQNVDTNVAWYQQKPGQSPKALIYSASYRYSGVPDRFTGSGSGTDFTLTISSLQPEDFATYFCQQYDSYPLTFGGGTKLEIKRTVAAPSVFIFPPSDEQLKSGTASVVCLLNNFYPREAKVQWKVDNALQSGNSQESVTEQDSKDSTYSLSSTLTLSKADYEKHKVYACEVTHQGLSSPVTKSFNRGEC
notes: anti-CD38 x anti-CD3; copies: 1 + 1 + 1
As for B5, the “Fold Decrease in CD3 binding from H1.30_L1.47” value (“Fold Decrease in CD3 binding” for short) in assay [8] stood at 330 fold. Also, the dissociation constant Kd in assay [9] came out at 1640 nM.

B6: XmAb14702 (bispecific antibody)
heavy: EVQLVESGGGLVQPGGSLRLSCAASGFTFSYSWMNWVRQAPGKGLEWVSEINPQSSTINYATSVKGRFTISRDNSKNTLYLQMNSLRAEDTAVYYCARYGNWFPYWGQGTLVTVSSASTKGPSVFPLAPSSKSTSGGTAALGCLVKDYFPEPVTVSWNSGALTSGVHTFPAVLQSSGLYSLSSVVTVPSSSLGTQTYICNVNHKPSDTKVDKKVEPKSCDKTHTCPPCPAPPVAGPSVFLFPPKPKDTLMISRTPEVTCVVVDVKHEDPEVKFNWYVDGVEVHNAKTKPREEEYNSTYRVVSVLTVLHQDWLNGKEYKCKVSNKALPAPIEKTISKAKGQPREPQVYTLPPSREEMTKNQVSLTCDVSGFYPSDIAVEWESDGQPENNYKTTPPVLDSDGSFFLYSKLTVDKSRWEQGDVFSCSVMHEALHNHYTQKSLSLSPGK
scFv-Fc: not shown
light: DIVMTQSPSSLSASVGDRVTITCRASQNVDTWVAWYQQKPGQSPKALIYSASYRYSGVPDRFTGSGSGTDFTLTISSLQPEDFATYFCQQYDSYPLTFGGGTKLEIKRTVAAPSVFIFPPSDEQLKSGTASVVCLLNNFYPREAKVQWKVDNALQSGNSQESVTEQDSKDSTYSLSSTLTLSKADYEKHKVYACEVTHQGLSSPVTKSFNRGEC
In the case of B6, the “Fold Decrease in CD3 binding” value in assay [8] came to 330 fold. For the same molecule, in assay [9], binding was characterised by a dissociation constant (Kd) of 1640 nM.

B7: XENP13243 (bispecific antibody)
heavy: EVQLVESGGGLVQPGGSLRLSCAASGFDFSRSWMNWVRQAPGKGLEWVSEINPDSSTINYATSVKGRFTISRDNSKNTLYLQMNSLRAEDTAVYYCARYGNWFPYWGQGTLVTVSSASTKGPSVFPLAPSSKSTSGGTAALGCLVKDYFPEPVTVSWNSGALTSGVHTFPAVLQSSGLYSLSSVVTVPSSSLGTQTYICNVNHKPSDTKVDKKVEPKSCDKTHTCPPCPAPPVAGPSVFLFPPKPKDTLMISRTPEVTCVVVDVKHEDPEVKFNWYVDGVEVHNAKTKPREEEYNSTYRVVSVLTVLHQDWLNGKEYKCKVSNKALPAPIEKTISKAKGQPREPQVYTLPPSREEMTKNQVSLTCDVSGFYPSDIAVEWESDGQPENNYKTTPPVLDSDGSFFLYSKLTVDKSRWEQGDVFSCSVMHEALHNHYTQKSLSLSPGK
scFv-Fc: not shown
light: DIVMTQSPSSLSASVGDRVTITCRASQNVDTNVAWYQQKPGQSPKALIYSASYRYSGVPDRFTGSGSGTDFTLTISSLQPEDFATYFCQQYDSYPLTFGGGTKLEIKRTVAAPSVFIFPPSDEQLKSGTASVVCLLNNFYPREAKVQWKVDNALQSGNSQESVTEQDSKDSTYSLSSTLTLSKADYEKHKVYACEVTHQGLSSPVTKSFNRGEC
notes: as for B5
For B7, in assay [8], the “Fold Decrease in CD3 binding” value amounted to 1 fold. In [10], this molecule had a dissociation constant Kd of 4.91 nM.

B8: XENP14703 (bispecific antibody)
heavy: EVQLVESGGGLVQPGGSLRLSCAASGFDFSRSWMNWVRQAPGKGLEWVSEINPDSSTINYATSVKGRFTISRDNSKNTLYLQMNSLRAEDTAVYYCARYGNWFPYWGQGTLVTVSSASTKGPSVFPLAPSSKSTSGGTAALGCLVKDYFPEPVTVSWNSGALTSGVHTFPAVLQSSGLYSLSSVVTVPSSSLGTQTYICNVNHKPSDTKVDKKVEPKSCDKTHTCPPCPAPPVAGPSVFLFPPKPKDTLMISRTPEVTCVVVDVKHEDPEVKFNWYVDGVEVHNAKTKPREEEYNSTYRVVSVLTVLHQDWLNGKEYKCKVSNKALPAPIEKTISKAKGQPREPQVYTLPPSREEMTKNQVSLTCDVSGFYPSDIAVEWESDGQPENNYKTTPPVLDSDGSFFLYSKLTVDKSRWEQGDVFSCSVMHEALHNHYTQKSLSLSPGK
scFv-Fc: not shown
light: DIVMTQSPSSLSASVGDRVTITCRASQNVDTNVAWYQQKPGQSPKALIYSASYRKSGVPDRFTGSGSGTDFTLTISSLQPEDFATYFCQQYDSYPLTFGGGTKLEIKRTVAAPSVFIFPPSDEQLKSGTASVVCLLNNFYPREAKVQWKVDNALQSGNSQESVTEQDSKDSTYSLSSTLTLSKADYEKHKVYACEVTHQGLSSPVTKSFNRGEC
notes: anti-CD38 x anti-CD3
Turning to B8, the “Fold Decrease in CD3 binding” value in assay [8] amounted to 330 fold. In [9], this molecule gave a Kd of 1640 nM.
